Assay results taken from the supplement of paper PMC9233669.
This sample holds only a part of the variants without activity.

Key:
biotinyl-Leu-oxazolone = assay: self-aminoacylation, catalytic enhancement (BLO) (fold over background); higher = more active; k-Seq, kA / k0A0; sequences stand for … in GGGAAUGGAUCCACAUCUACGAAUUC…UUCACUGCAGACUUGACGAAGCUG
Summary of the method: (§1)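 Mutagenized RNA pools with a 21-nt variable region (0.43 μM) were reacted with each biotinyl-aminoacyl-oxazolone at 2–1250 μM for 90 minutes at room temperature, in 50 μL HEPES/NaCl/KCl/MgCl2/CaCl2 buffer containing 5% acetonitrile at pH 6.9–7.0. RNA captured on streptavidin was quantified by triplicate qPCR and by Illumina sequencing. The fraction reacted for each sequence was fit to a pseudo-first-order model with bootstrapping, and catalytic enhancement is the median kA divided by the uncatalyzed rate, taken as the low-activity peak of a bimodal Gaussian fit.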

biotinyl-Ile-oxazolone = assay: self-aminoacylation, catalytic enhancement (BIO) (fold over background); higher = more active; k-Seq, kA / k0A0; sequences stand for … in GGGAAUGGAUCCACAUCUACGAAUUC…UUCACUGCAGACUUGACGAAGCUG
Summary of the method: as §1

biotinyl-Trp-oxazolone = assay: self-aminoacylation, catalytic enhancement (BWO) (fold over background); higher = more active; k-Seq, kA / k0A0; sequences stand for … in GGGAAUGGAUCCACAUCUACGAAUUC…UUCACUGCAGACUUGACGAAGCUG
Summary of the method: as §1

biotinyl-Phe-oxazolone = assay: self-aminoacylation, catalytic enhancement (BFO) (fold over background); higher = more active; k-Seq, kA / k0A0; sequences stand for … in GGGAAUGGAUCCACAUCUACGAAUUC…UUCACUGCAGACUUGACGAAGCUG
Summary of the method: as §1

biotinyl-Val-oxazolone = assay: self-aminoacylation, catalytic enhancement (BVO) (fold over background); higher = more active; k-Seq, kA / k0A0; sequences stand for … in GGGAAUGGAUCCACAUCUACGAAUUC…UUCACUGCAGACUUGACGAAGCUG
Summary of the method: as §1

biotinyl-Met-oxazolone = assay: self-aminoacylation, catalytic enhancement (BMO) (fold over background); higher = more active; k-Seq, kA / k0A0; sequences stand for … in GGGAAUGGAUCCACAUCUACGAAUUC…UUCACUGCAGACUUGACGAAGCUG
Summary of the method: as §1

In the case of “AUUAUCCUGGUCAGCGAGUGA [Fam2.1 aminoacylation ribozyme variant]”, the self-aminoacylation (biotinyl-Leu-oxazolone) is reported as 5.28, the self-aminoacylation (biotinyl-Ile-oxazolone) is reported as 3.04 and the self-aminoacylation (biotinyl-Trp-oxazolone) is reported as 6.53. It also gave a self-aminoacylation (biotinyl-Phe-oxazolone) of 17.7, a self-aminoacylation (biotinyl-Val-oxazolone) of 3.13 and a self-aminoacylation (biotinyl-Met-oxazolone) of 5.26.
For “AUUAUCCUGGUCAUCGAGUAA [Fam2.1 aminoacylation ribozyme variant]”, the self-aminoacylation (biotinyl-Leu-oxazolone) was 1.85, the self-aminoacylation (biotinyl-Ile-oxazolone) was 1.43 and the self-aminoacylation (biotinyl-Trp-oxazolone) was 1.08. It also gave a self-aminoacylation (biotinyl-Phe-oxazolone) of 2.69, a self-aminoacylation (biotinyl-Val-oxazolone) of 1.39 and a self-aminoacylation (biotinyl-Met-oxazolone) of 2.03.
For “AUUAUCCUGGUCAUCGCGUGA [Fam2.1 aminoacylation ribozyme variant]”, the self-aminoacylation (biotinyl-Leu-oxazolone) was 19.9, the self-aminoacylation (biotinyl-Ile-oxazolone) was 6.96 and the self-aminoacylation (biotinyl-Trp-oxazolone) was 19.3. The self-aminoacylation (biotinyl-Phe-oxazolone) was 146, the self-aminoacylation (biotinyl-Val-oxazolone) was 8.29 and the self-aminoacylation (biotinyl-Met-oxazolone) was 17.9.
“AUUAUCCUGGUCAUGGAGUGA [Fam2.1 aminoacylation ribozyme variant]” was tested, and the self-aminoacylation (biotinyl-Leu-oxazolone) was 4.6, the self-aminoacylation (biotinyl-Ile-oxazolone) was 2.67 and the self-aminoacylation (biotinyl-Trp-oxazolone) was 5.21. It also gave a self-aminoacylation (biotinyl-Phe-oxazolone) of 13.6, a self-aminoacylation (biotinyl-Val-oxazolone) of 2.6 and a self-aminoacylation (biotinyl-Met-oxazolone) of 4.22.
“AUUCAACCAGGUCAUCGGGUG [Fam2.2 aminoacylation ribozyme variant]” showed a self-aminoacylation (biotinyl-Leu-oxazolone) of 7.64, a self-aminoacylation (biotinyl-Ile-oxazolone) of 4.64 and a self-aminoacylation (biotinyl-Trp-oxazolone) of 6.24. It also gave a self-aminoacylation (biotinyl-Phe-oxazolone) of 58.9, a self-aminoacylation (biotinyl-Val-oxazolone) of 4.22 and a self-aminoacylation (biotinyl-Met-oxazolone) of 5.83.
“AUUCAACGAGGUCAUCGGGUG [Fam2.2 aminoacylation ribozyme variant]” showed a self-aminoacylation (biotinyl-Leu-oxazolone) of 9.27, a self-aminoacylation (biotinyl-Ile-oxazolone) of 3.97 and a self-aminoacylation (biotinyl-Trp-oxazolone) of 6.07. It also gave a self-aminoacylation (biotinyl-Phe-oxazolone) of 54.8, a self-aminoacylation (biotinyl-Val-oxazolone) of 5.11 and a self-aminoacylation (biotinyl-Met-oxazolone) of 7.46.
For “AUUCAACUAAGUCAUCGGGUG [Fam2.2 aminoacylation ribozyme variant]”, the self-aminoacylation (biotinyl-Leu-oxazolone) was 10.7, the self-aminoacylation (biotinyl-Ile-oxazolone) was 4.92 and the self-aminoacylation (biotinyl-Trp-oxazolone) was 7.24. It also gave a self-aminoacylation (biotinyl-Phe-oxazolone) of 69.4, a self-aminoacylation (biotinyl-Val-oxazolone) of 4.13 and a self-aminoacylation (biotinyl-Met-oxazolone) of 7.12.
With “AUUCAACUAGGUCAUAGGGUG [Fam2.2 aminoacylation ribozyme variant]” the self-aminoacylation (biotinyl-Leu-oxazolone) was 2.58, the self-aminoacylation (biotinyl-Ile-oxazolone) was 1.49 and the self-aminoacylation (biotinyl-Trp-oxazolone) was 1.47. The self-aminoacylation (biotinyl-Phe-oxazolone) was 9.13, the self-aminoacylation (biotinyl-Val-oxazolone) was 1.28 and the self-aminoacylation (biotinyl-Met-oxazolone) was 2.
“AUUCAACUAGGUCUUCGGGUG [Fam2.2 aminoacylation ribozyme variant]” showed a self-aminoacylation (biotinyl-Leu-oxazolone) of 4.84, a self-aminoacylation (biotinyl-Ile-oxazolone) of 2.93 and a self-aminoacylation (biotinyl-Trp-oxazolone) of 4.34. For the same sequence, the self-aminoacylation (biotinyl-Phe-oxazolone) was 29.8, the self-aminoacylation (biotinyl-Val-oxazolone) was 3.01 and the self-aminoacylation (biotinyl-Met-oxazolone) was 4.21.
With “AUUCAACUAGGUUAUCGGGUG [Fam2.2 aminoacylation ribozyme variant]” the self-aminoacylation (biotinyl-Leu-oxazolone) was 3.61, the self-aminoacylation (biotinyl-Ile-oxazolone) was 2.21 and the self-aminoacylation (biotinyl-Trp-oxazolone) was 3.46. The self-aminoacylation (biotinyl-Phe-oxazolone) was 22.1, the self-aminoacylation (biotinyl-Val-oxazolone) was 2.45 and the self-aminoacylation (biotinyl-Met-oxazolone) was 3.29.
“AUUCAACUAGUUCAUCGGGUG [Fam2.2 aminoacylation ribozyme variant]” was tested, and the self-aminoacylation (biotinyl-Leu-oxazolone) was 2.77, the self-aminoacylation (biotinyl-Ile-oxazolone) was 1.95 and the self-aminoacylation (biotinyl-Trp-oxazolone) was 2.29. The self-aminoacylation (biotinyl-Phe-oxazolone) was 16.8, the self-aminoacylation (biotinyl-Val-oxazolone) was 1.95 and the self-aminoacylation (biotinyl-Met-oxazolone) was 2.82.
“AUUCACAUAGAUCAUCGGGUG [Fam2.2 aminoacylation ribozyme variant]” gave a self-aminoacylation (biotinyl-Leu-oxazolone) of 5.04, a self-aminoacylation (biotinyl-Ile-oxazolone) of 2.93 and a self-aminoacylation (biotinyl-Trp-oxazolone) of 3.84. The self-aminoacylation (biotinyl-Phe-oxazolone) was 35.2, the self-aminoacylation (biotinyl-Val-oxazolone) was 2.8 and the self-aminoacylation (biotinyl-Met-oxazolone) was 4.43.
“AUUCACAUAGCUCAUCGGGUG [Fam2.2 aminoacylation ribozyme variant]” gave a self-aminoacylation (biotinyl-Leu-oxazolone) of 2.36, a self-aminoacylation (biotinyl-Ile-oxazolone) of 2 and a self-aminoacylation (biotinyl-Trp-oxazolone) of 2.34. The self-aminoacylation (biotinyl-Phe-oxazolone) was 12.6, the self-aminoacylation (biotinyl-Val-oxazolone) was 2.38 and the self-aminoacylation (biotinyl-Met-oxazolone) was 1.91.
“AUUCACAUAGGUCAUCAGGUG [Fam2.2 aminoacylation ribozyme variant]” was tested, and the self-aminoacylation (biotinyl-Leu-oxazolone) was 1.63, the self-aminoacylation (biotinyl-Ile-oxazolone) was 1.2 and the self-aminoacylation (biotinyl-Trp-oxazolone) was 1.85. The self-aminoacylation (biotinyl-Phe-oxazolone) was 1.62, the self-aminoacylation (biotinyl-Val-oxazolone) was 1.4 and the self-aminoacylation (biotinyl-Met-oxazolone) was 1.41.
“AUUCACAUAGGUCAUCGGGUA [Fam2.2 aminoacylation ribozyme variant]” showed a self-aminoacylation (biotinyl-Leu-oxazolone) of 2.54, a self-aminoacylation (biotinyl-Ile-oxazolone) of 2.24 and a self-aminoacylation (biotinyl-Trp-oxazolone) of 3.56. For the same sequence, the self-aminoacylation (biotinyl-Phe-oxazolone) was 22.7, the self-aminoacylation (biotinyl-Val-oxazolone) was 2.57 and the self-aminoacylation (biotinyl-Met-oxazolone) was 2.86.
“AUUCACAUAGGUCAUCGGGUG [Fam2.2 aminoacylation ribozyme variant]” was tested, and the self-aminoacylation (biotinyl-Leu-oxazolone) was 10.6, the self-aminoacylation (biotinyl-Ile-oxazolone) was 5.09 and the self-aminoacylation (biotinyl-Trp-oxazolone) was 7.83. For the same sequence, the self-aminoacylation (biotinyl-Phe-oxazolone) was 65.2, the self-aminoacylation (biotinyl-Val-oxazolone) was 5.09 and the self-aminoacylation (biotinyl-Met-oxazolone) was 8.47.
Sequence “AUUCACAUAGGUCAUGGGGUG [Fam2.2 aminoacylation ribozyme variant]” has a self-aminoacylation (biotinyl-Leu-oxazolone) of 9.35, a self-aminoacylation (biotinyl-Ile-oxazolone) of 4.56 and a self-aminoacylation (biotinyl-Trp-oxazolone) of 6.97. It also gave a self-aminoacylation (biotinyl-Phe-oxazolone) of 46.7, a self-aminoacylation (biotinyl-Val-oxazolone) of 4.12 and a self-aminoacylation (biotinyl-Met-oxazolone) of 7.28.
In the case of “AUUCACAUAUGUCAUCGGGUG [Fam2.2 aminoacylation ribozyme variant]”, the self-aminoacylation (biotinyl-Leu-oxazolone) is reported as 9.08, the self-aminoacylation (biotinyl-Ile-oxazolone) is reported as 4.44 and the self-aminoacylation (biotinyl-Trp-oxazolone) is reported as 7.3. The self-aminoacylation (biotinyl-Phe-oxazolone) was 52.5, the self-aminoacylation (biotinyl-Val-oxazolone) was 4.21 and the self-aminoacylation (biotinyl-Met-oxazolone) was 7.09.
“AUUCACCAAGGCCAUCGGGUG [Fam2.2 aminoacylation ribozyme variant]” gave a self-aminoacylation (biotinyl-Leu-oxazolone) of 5.34, a self-aminoacylation (biotinyl-Ile-oxazolone) of 3.32 and a self-aminoacylation (biotinyl-Trp-oxazolone) of 4.57. It also gave a self-aminoacylation (biotinyl-Phe-oxazolone) of 30.1, a self-aminoacylation (biotinyl-Val-oxazolone) of 3.49 and a self-aminoacylation (biotinyl-Met-oxazolone) of 5.09.
In the case of “AUUCACCAAGGUCAACGGGUG [Fam2.2 aminoacylation ribozyme variant]”, the self-aminoacylation (biotinyl-Leu-oxazolone) is reported as 8.07, the self-aminoacylation (biotinyl-Ile-oxazolone) is reported as 3.52 and the self-aminoacylation (biotinyl-Trp-oxazolone) is reported as 6.16. It also gave a self-aminoacylation (biotinyl-Phe-oxazolone) of 42.5, a self-aminoacylation (biotinyl-Val-oxazolone) of 3.1 and a self-aminoacylation (biotinyl-Met-oxazolone) of 6.3.
Work on “AUUCACCAAGGUCAUCGGGUU [Fam2.2 aminoacylation ribozyme variant]” yielded a self-aminoacylation (biotinyl-Leu-oxazolone) of 2.21, a self-aminoacylation (biotinyl-Ile-oxazolone) of 2.42 and a self-aminoacylation (biotinyl-Trp-oxazolone) of 4.16. It also gave a self-aminoacylation (biotinyl-Phe-oxazolone) of 17.2, a self-aminoacylation (biotinyl-Val-oxazolone) of 2.59 and a self-aminoacylation (biotinyl-Met-oxazolone) of 2.43.
Sequence “AUUCACCAAGGUCAUCGGUUG [Fam2.2 aminoacylation ribozyme variant]” has a self-aminoacylation (biotinyl-Leu-oxazolone) of 1.72, a self-aminoacylation (biotinyl-Ile-oxazolone) of 1.42 and a self-aminoacylation (biotinyl-Trp-oxazolone) of 1.69. The self-aminoacylation (biotinyl-Phe-oxazolone) was 9.05, the self-aminoacylation (biotinyl-Val-oxazolone) was 1.39 and the self-aminoacylation (biotinyl-Met-oxazolone) was 1.55.
With “AUUCACCAAGGUCAUUGGGUG [Fam2.2 aminoacylation ribozyme variant]” the self-aminoacylation (biotinyl-Leu-oxazolone) was 9.21, the self-aminoacylation (biotinyl-Ile-oxazolone) was 4.07 and the self-aminoacylation (biotinyl-Trp-oxazolone) was 6.53. The self-aminoacylation (biotinyl-Phe-oxazolone) was 49.8, the self-aminoacylation (biotinyl-Val-oxazolone) was 4.54 and the self-aminoacylation (biotinyl-Met-oxazolone) was 6.78.
